In the experiment the target is T1, Enhancer of zeste homolog 2 (EZH2), isoform 2, subunit of recombinant human PRC2, automethylated (human, UniProt Q15910-2 1-751, K510, K514 and K515 methylated to varying degrees (automethylation)).
T1 construct: EZH2 isoform 2, human, full-length; Stood in the assay as a subunit of PRC2; also called EZH2^dist; EZH2^prox; source: as subunit of m1: HighFive / Trichoplusia ni insect cells, baculovirus, purified within PRC2
Nature of the experiment: cryo-EM structure; 800 nM automethylated PRC2 with 200 nM biotinylated nucleosome and 100 μM SAH in 25 mM HEPES pH 7.9, 50 mM KCl, 1 mM TCEP, 30 minutes at RT; nucleosome held on streptavidin affinity grids; classes of a PRC2 dimer and of a PRC2 monomer on the nucleosome. Conditions: both partners purified.

T1 sequence (Q15910 other isoform, or with tags, fused parts or gaps): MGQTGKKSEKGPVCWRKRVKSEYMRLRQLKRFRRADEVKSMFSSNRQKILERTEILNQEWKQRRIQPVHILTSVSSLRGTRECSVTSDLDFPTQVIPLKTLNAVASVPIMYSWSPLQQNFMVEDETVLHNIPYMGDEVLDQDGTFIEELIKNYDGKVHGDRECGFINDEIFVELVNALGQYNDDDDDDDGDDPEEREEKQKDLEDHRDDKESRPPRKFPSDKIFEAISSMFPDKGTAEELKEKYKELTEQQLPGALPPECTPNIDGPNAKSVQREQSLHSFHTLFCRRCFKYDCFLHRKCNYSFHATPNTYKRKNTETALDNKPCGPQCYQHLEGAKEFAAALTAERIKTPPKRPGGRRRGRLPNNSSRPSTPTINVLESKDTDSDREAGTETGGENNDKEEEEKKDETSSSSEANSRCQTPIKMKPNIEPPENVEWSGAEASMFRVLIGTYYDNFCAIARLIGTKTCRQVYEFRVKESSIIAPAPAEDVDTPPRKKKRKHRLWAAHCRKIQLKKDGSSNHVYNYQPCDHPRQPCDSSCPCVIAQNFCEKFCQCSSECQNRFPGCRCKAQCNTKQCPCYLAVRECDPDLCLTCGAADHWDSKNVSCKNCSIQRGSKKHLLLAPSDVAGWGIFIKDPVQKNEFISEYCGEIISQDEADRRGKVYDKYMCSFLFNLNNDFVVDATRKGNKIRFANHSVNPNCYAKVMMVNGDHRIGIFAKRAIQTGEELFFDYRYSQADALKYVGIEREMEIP

B1: Embryonic ectoderm development (EED), subunit of recombinant human PRC2 (natural protein)
chain: not shown
notes: EED, human, full-length; Stood in the assay as a subunit of PRC2; also called EED^prox; EED^dist; source: as subunit of m1: HighFive / Trichoplusia ni insect cells, baculovirus, purified within PRC2
As for B1, the binding result is reported as “binds”.

The record behind these values is paper PMC11980035, “Activation of automethylated PRC2 by dimerization on chromatin” (Molecular cell, 2024).
